{"source": "paper doi:10.1101/2021.06.02.446813", "about": "(bioRxiv, 2021)", "binders": {"B1": {"name": "antibody 5317-4 (IgG1) (antibody, V domains shown)", "VH": "QVQLRLWGAGLLKPSETLSLTCAVSGGSFIDYYWTWIRQPPGKGLEWIGEINHFGGSGYNPSLKSRVSISVDTSKNQFSLRLNSVTAADTAIYYCARKPLLHSSVNPGAFDIWGQGTMLTVSS", "VL": "EIVLTQSPGTLSLSPGERAALSCRASQSVAGTYLAWYQQKPGQAPRLLIYGASSRATGIPDRFSGSGSGTDFTLTISRLEPEDFAVYYCQQYATSPRTFGQGTQLEIR"}, "B2": {"name": "antibody 5317-10 (IgG1) (antibody, V domains shown)", "VH": "EVQLVQSGAEVKKPGESLTISCKASGYRFTSNWITWVRQMPGKGLEWMGRIDPDDPYSNSSPSFQGHATLSLDKAINTAYLHWSSLKASDTAMYYCARVNRVGDGPDFWGQGTLVTVSS", "VL": "DIVMTQSPLSLPVTPGEPASISCRSSQSLLFGNGYTYLNWYLQKPGQSPQLLIYLGSNRASGVPDRFSVSGSGTDFTLIISRVEAEDVGVYFCMQALQTPWTFGQGTKVEIK"}}, "key": {"[1]": {"target": "SARS-CoV-2 RBD-SD1 (residues 306-577) (Severe acute respiratory syndrome …, UniProt P0DTC2)", "experiment": "BLI"}, "[2]": {"target": "SARS-CoV-2 S1 protein (Sino Biological) (SARS-CoV-2, ancestral (Wuhan-Hu-1) …, UniProt P0DTC2)", "experiment": "ELISA"}}, "data": [{"binder": "B1", "values": [{"measurement": "binding result", "setting": "[1]", "value": "binds"}]}, {"binder": "B2", "values": [{"measurement": "binding result", "setting": "[2]", "value": "binds"}]}]}
